Experimental data taken from patent publication US20120277143A1.

Assays:
[1] = molecular target: cyno IL13 (cynomolgus monkey) (UniProt Q0PW92); assay: cell-based or functional assay
human IL13 (human) [2] = molecular target: human IL13 (human) (UniProt P35225); assay: cell-based or functional assay
human IL13 R130Q (human) = human IL13 R130Q (human) (UniProt P35225); assay: Luminex competition, 80 pM biotin-IL13 R130Q binding to IL13Ra2-Fc beads
human IL13 (human) [3] = molecular target: human IL13 (human) (UniProt P35225); assay: SPR BIAcore, biotin-IL13 on SA chip, global fit

Chain of human IL13 R130Q (human) (P35225 35-146 limits assumed, stated change not applied): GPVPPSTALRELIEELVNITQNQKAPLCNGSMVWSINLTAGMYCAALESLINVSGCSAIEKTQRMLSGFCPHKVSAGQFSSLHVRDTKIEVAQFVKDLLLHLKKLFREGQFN
Chain of human IL13 (human) (P35225 other isoform, or with tags, fused parts or gaps limits assumed): as the sequence (P35225 35-146 limits assumed, stated change not applied) above, with Q110R counted along it
Chain of cyno IL13 (cynomolgus monkey) (Q0PW92 entry or part of it): as the sequence (P35225 35-146 limits assumed, stated change not applied) above, with G1S, R10K, M42V, S67N, H83R, L100V counted along it

Row | Binder | Cyno IL13 STAT6 IC50 [1] [nM] | STAT6 Phospho IC50 (human IL13 (human) [2]) [nM] | TARC expression IC50 (human IL13 (human) [2]) [nM] | IC50 (human IL13 R130Q (human)) [nM] | Kd (human IL13 (human) [3]) [nM] | koff (human IL13 (human) [3]) [s⁻¹] | kon (human IL13 (human) [3]) [M⁻¹ s⁻¹]
1 | 7H3 (designed binder, part only; not given: N-cap, C-cap, His tag, part only) chain, part: TDMYGSTPLHLAARHGHLEIVEVLLKYGADVNAFDFIGDTPLHLAAYRGHLEIVEVLLKYGVDVNADDHYGDTPLHLAASMGHLEIVEVLLKNGADVNA | 0.388 | 0.0253 | 0.0696 | 0.0669 | 0.131 | 0.00056 | 4.26e+06
2 | 5D2 (designed binder, part only; not given: N-cap, C-cap, His tag, part only) chain, part: KDLFGSTPLHLAARHGHLEIVEVLLKNGADVNAEDFIGDTPLHLAAYRGHLEIVEVLLKYGVDVNADDHYGDTPLHLAASMGHLEIVEVLLKNGADVNA | 0.224 | 0.0203 | 0.0714 | 0.0322 | 0.145 | 0.000218 | 1.51e+06
3 | 5D3 (designed binder, part only; not given: N-cap, C-cap, His tag, part only) chain, part: WDSYGSTPLHLAAREGHLEIVEVLLKYGADVNAKDMIGDTPLHLAAYRGHLEIVEVLLKYGVDVNADDHYGDTPLHLAASMGHLEIVEVLLKNGADVNA | 3.02 | 0.0169 | 0.0883 | 0.0375 | 0.164 | 0.000144 | 877000
